*1 amine or outer side, *2 acyl side, *3 side chain or, on linkers, in order; H or OH if unused. Side-chain parts run from the residue outwards. The star is where a group is joined. C18 diacid = O=C(O)CCCCCCCCCCCCCCCCC(=O)*; γGlu = O=C(O)[C@H](CCC(=O)[*:2])N[*:1]; Isovaleryl = CC(C)CC(=O)*; Ahx = NCCCCCC(=O)O

To fix the notation:
B1: Compound 3 (peptide)
peptide: Isovaleryl-APAK([Ahx-γGlu-C18 diacid])PEADAEPEELQRYYVALRHYYNWLTRQRY-NH2
SMILES: CC(C)CC(=O)N[C@@H](C)C(=O)N1CCC[C@H]1C(=O)N[C@@H](C)C(=O)N[C@@H](CCCCNC(=O)CCCCCNC(=O)CC[C@H](NC(=O)CCCCCCCCCCCCCCCCC(=O)O)C(=O)O)C(=O)N1CCC[C@H]1C(=O)N[C@@H](CCC(=O)O)C(=O)N[C@@H](C)C(=O)N[C@@H](CC(=O)O)C(=O)N[C@@H](C)C(=O)N[C@@H](CCC(=O)O)C(=O)N1CCC[C@H]1C(=O)N[C@@H](CCC(=O)O)C(=O)N[C@@H](CCC(=O)O)C(=O)N[C@@H](CC(C)C)C(=O)N[C@@H](CCC(N)=O)C(=O)N[C@@H](CCCNC(=N)N)C(=O)N[C@@H](Cc1ccc(O)cc1)C(=O)N[C@@H](Cc1ccc(O)cc1)C(=O)N[C@H](C(=O)N[C@@H](C)C(=O)N[C@@H](CC(C)C)C(=O)N[C@@H](CCCNC(=N)N)C(=O)N[C@@H](Cc1c[nH]cn1)C(=O)N[C@@H](Cc1ccc(O)cc1)C(=O)N[C@@H](Cc1ccc(O)cc1)C(=O)N[C@@H](CC(N)=O)C(=O)N[C@@H](Cc1c[nH]c2ccccc12)C(=O)N[C@@H](CC(C)C)C(=O)N[C@H](C(=O)N[C@@H](CCCNC(=N)N)C(=O)N[C@@H](CCC(N)=O)C(=O)N[C@@H](CCCNC(=N)N)C(=O)N[C@@H](Cc1ccc(O)cc1)C(N)=O)[C@@H](C)O)C(C)C
B2: Compound 9 (peptide)
peptide: Isovaleryl-APEK([Ahx-γGlu-C18 diacid])PEEQATPEELQRYYVSLRHYYNWLTRQRY-NH2
SMILES: CC(C)CC(=O)N[C@@H](C)C(=O)N1CCC[C@H]1C(=O)N[C@@H](CCC(=O)O)C(=O)N[C@@H](CCCCNC(=O)CCCCCNC(=O)CC[C@H](NC(=O)CCCCCCCCCCCCCCCCC(=O)O)C(=O)O)C(=O)N1CCC[C@H]1C(=O)N[C@@H](CCC(=O)O)C(=O)N[C@@H](CCC(=O)O)C(=O)N[C@@H](CCC(N)=O)C(=O)N[C@@H](C)C(=O)N[C@H](C(=O)N1CCC[C@H]1C(=O)N[C@@H](CCC(=O)O)C(=O)N[C@@H](CCC(=O)O)C(=O)N[C@@H](CC(C)C)C(=O)N[C@@H](CCC(N)=O)C(=O)N[C@@H](CCCNC(=N)N)C(=O)N[C@@H](Cc1ccc(O)cc1)C(=O)N[C@@H](Cc1ccc(O)cc1)C(=O)N[C@H](C(=O)N[C@@H](CO)C(=O)N[C@@H](CC(C)C)C(=O)N[C@@H](CCCNC(=N)N)C(=O)N[C@@H](Cc1c[nH]cn1)C(=O)N[C@@H](Cc1ccc(O)cc1)C(=O)N[C@@H](Cc1ccc(O)cc1)C(=O)N[C@@H](CC(N)=O)C(=O)N[C@@H](Cc1c[nH]c2ccccc12)C(=O)N[C@@H](CC(C)C)C(=O)N[C@H](C(=O)N[C@@H](CCCNC(=N)N)C(=O)N[C@@H](CCC(N)=O)C(=O)N[C@@H](CCCNC(=N)N)C(=O)N[C@@H](Cc1ccc(O)cc1)C(N)=O)[C@@H](C)O)C(C)C)[C@@H](C)O
B3: Compound 13 (peptide)
peptide: Isovaleryl-APEK([Ahx-γGlu-C18 diacid])PEADASPEETQRYYVSLRHYYNWLTRQRY-NH2
SMILES: CC(C)CC(=O)N[C@@H](C)C(=O)N1CCC[C@H]1C(=O)N[C@@H](CCC(=O)O)C(=O)N[C@@H](CCCCNC(=O)CCCCCNC(=O)CC[C@H](NC(=O)CCCCCCCCCCCCCCCCC(=O)O)C(=O)O)C(=O)N1CCC[C@H]1C(=O)N[C@@H](CCC(=O)O)C(=O)N[C@@H](C)C(=O)N[C@@H](CC(=O)O)C(=O)N[C@@H](C)C(=O)N[C@@H](CO)C(=O)N1CCC[C@H]1C(=O)N[C@@H](CCC(=O)O)C(=O)N[C@@H](CCC(=O)O)C(=O)N[C@H](C(=O)N[C@@H](CCC(N)=O)C(=O)N[C@@H](CCCNC(=N)N)C(=O)N[C@@H](Cc1ccc(O)cc1)C(=O)N[C@@H](Cc1ccc(O)cc1)C(=O)N[C@H](C(=O)N[C@@H](CO)C(=O)N[C@@H](CC(C)C)C(=O)N[C@@H](CCCNC(=N)N)C(=O)N[C@@H](Cc1c[nH]cn1)C(=O)N[C@@H](Cc1ccc(O)cc1)C(=O)N[C@@H](Cc1ccc(O)cc1)C(=O)N[C@@H](CC(N)=O)C(=O)N[C@@H](Cc1c[nH]c2ccccc12)C(=O)N[C@@H](CC(C)C)C(=O)N[C@H](C(=O)N[C@@H](CCCNC(=N)N)C(=O)N[C@@H](CCC(N)=O)C(=O)N[C@@H](CCCNC(=N)N)C(=O)N[C@@H](Cc1ccc(O)cc1)C(N)=O)[C@@H](C)O)C(C)C)[C@@H](C)O
B4: Compound 5 (peptide)
peptide: Isovaleryl-APAK([Ahx-γGlu-C18 diacid])PEEDASPEELQRQYVSLRHYYNWLTRQRY-NH2
SMILES: CC(C)CC(=O)N[C@@H](C)C(=O)N1CCC[C@H]1C(=O)N[C@@H](C)C(=O)N[C@@H](CCCCNC(=O)CCCCCNC(=O)CC[C@H](NC(=O)CCCCCCCCCCCCCCCCC(=O)O)C(=O)O)C(=O)N1CCC[C@H]1C(=O)N[C@@H](CCC(=O)O)C(=O)N[C@@H](CCC(=O)O)C(=O)N[C@@H](CC(=O)O)C(=O)N[C@@H](C)C(=O)N[C@@H](CO)C(=O)N1CCC[C@H]1C(=O)N[C@@H](CCC(=O)O)C(=O)N[C@@H](CCC(=O)O)C(=O)N[C@@H](CC(C)C)C(=O)N[C@@H](CCC(N)=O)C(=O)N[C@@H](CCCNC(=N)N)C(=O)N[C@@H](CCC(N)=O)C(=O)N[C@@H](Cc1ccc(O)cc1)C(=O)N[C@H](C(=O)N[C@@H](CO)C(=O)N[C@@H](CC(C)C)C(=O)N[C@@H](CCCNC(=N)N)C(=O)N[C@@H](Cc1c[nH]cn1)C(=O)N[C@@H](Cc1ccc(O)cc1)C(=O)N[C@@H](Cc1ccc(O)cc1)C(=O)N[C@@H](CC(N)=O)C(=O)N[C@@H](Cc1c[nH]c2ccccc12)C(=O)N[C@@H](CC(C)C)C(=O)N[C@H](C(=O)N[C@@H](CCCNC(=N)N)C(=O)N[C@@H](CCC(N)=O)C(=O)N[C@@H](CCCNC(=N)N)C(=O)N[C@@H](Cc1ccc(O)cc1)C(N)=O)[C@@H](C)O)C(C)C
B5: Compound 4 (peptide)
peptide: Isovaleryl-APEK([Ahx-γGlu-C18 diacid])PEEAAEPEELQRYYVSLRHYYNWLTRQRY-NH2
SMILES: CC(C)CC(=O)N[C@@H](C)C(=O)N1CCC[C@H]1C(=O)N[C@@H](CCC(=O)O)C(=O)N[C@@H](CCCCNC(=O)CCCCCNC(=O)CC[C@H](NC(=O)CCCCCCCCCCCCCCCCC(=O)O)C(=O)O)C(=O)N1CCC[C@H]1C(=O)N[C@@H](CCC(=O)O)C(=O)N[C@@H](CCC(=O)O)C(=O)N[C@@H](C)C(=O)N[C@@H](C)C(=O)N[C@@H](CCC(=O)O)C(=O)N1CCC[C@H]1C(=O)N[C@@H](CCC(=O)O)C(=O)N[C@@H](CCC(=O)O)C(=O)N[C@@H](CC(C)C)C(=O)N[C@@H](CCC(N)=O)C(=O)N[C@@H](CCCNC(=N)N)C(=O)N[C@@H](Cc1ccc(O)cc1)C(=O)N[C@@H](Cc1ccc(O)cc1)C(=O)N[C@H](C(=O)N[C@@H](CO)C(=O)N[C@@H](CC(C)C)C(=O)N[C@@H](CCCNC(=N)N)C(=O)N[C@@H](Cc1c[nH]cn1)C(=O)N[C@@H](Cc1ccc(O)cc1)C(=O)N[C@@H](Cc1ccc(O)cc1)C(=O)N[C@@H](CC(N)=O)C(=O)N[C@@H](Cc1c[nH]c2ccccc12)C(=O)N[C@@H](CC(C)C)C(=O)N[C@H](C(=O)N[C@@H](CCCNC(=N)N)C(=O)N[C@@H](CCC(N)=O)C(=O)N[C@@H](CCCNC(=N)N)C(=O)N[C@@H](Cc1ccc(O)cc1)C(N)=O)[C@@H](C)O)C(C)C
B6: Compound 8 (peptide)
peptide: Isovaleryl-APEK([Ahx-γGlu-C18 diacid])PEEDETPEELQRYYVSLRHYYNWLTRQRY-NH2
SMILES: CC(C)CC(=O)N[C@@H](C)C(=O)N1CCC[C@H]1C(=O)N[C@@H](CCC(=O)O)C(=O)N[C@@H](CCCCNC(=O)CCCCCNC(=O)CC[C@H](NC(=O)CCCCCCCCCCCCCCCCC(=O)O)C(=O)O)C(=O)N1CCC[C@H]1C(=O)N[C@@H](CCC(=O)O)C(=O)N[C@@H](CCC(=O)O)C(=O)N[C@@H](CC(=O)O)C(=O)N[C@@H](CCC(=O)O)C(=O)N[C@H](C(=O)N1CCC[C@H]1C(=O)N[C@@H](CCC(=O)O)C(=O)N[C@@H](CCC(=O)O)C(=O)N[C@@H](CC(C)C)C(=O)N[C@@H](CCC(N)=O)C(=O)N[C@@H](CCCNC(=N)N)C(=O)N[C@@H](Cc1ccc(O)cc1)C(=O)N[C@@H](Cc1ccc(O)cc1)C(=O)N[C@H](C(=O)N[C@@H](CO)C(=O)N[C@@H](CC(C)C)C(=O)N[C@@H](CCCNC(=N)N)C(=O)N[C@@H](Cc1c[nH]cn1)C(=O)N[C@@H](Cc1ccc(O)cc1)C(=O)N[C@@H](Cc1ccc(O)cc1)C(=O)N[C@@H](CC(N)=O)C(=O)N[C@@H](Cc1c[nH]c2ccccc12)C(=O)N[C@@H](CC(C)C)C(=O)N[C@H](C(=O)N[C@@H](CCCNC(=N)N)C(=O)N[C@@H](CCC(N)=O)C(=O)N[C@@H](CCCNC(=N)N)C(=O)N[C@@H](Cc1ccc(O)cc1)C(N)=O)[C@@H](C)O)C(C)C)[C@@H](C)O

This experiment concerns the target T1, human NPY2 receptor (human, UniProt P49146 1-381).
T1 construct: whole, on cells; also called hNPY2-R; hNPY2R
T1 sequence (looked up): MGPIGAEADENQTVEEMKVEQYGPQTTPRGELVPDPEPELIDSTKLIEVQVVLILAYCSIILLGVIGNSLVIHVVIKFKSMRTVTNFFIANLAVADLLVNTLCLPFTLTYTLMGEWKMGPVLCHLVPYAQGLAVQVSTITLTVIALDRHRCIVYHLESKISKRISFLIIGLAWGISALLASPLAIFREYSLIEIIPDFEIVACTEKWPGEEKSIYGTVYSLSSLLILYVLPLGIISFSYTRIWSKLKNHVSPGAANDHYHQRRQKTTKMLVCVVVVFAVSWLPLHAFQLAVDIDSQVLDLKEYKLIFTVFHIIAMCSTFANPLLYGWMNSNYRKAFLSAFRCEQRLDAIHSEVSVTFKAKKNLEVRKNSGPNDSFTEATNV
The experiment in a line: RLB: displacement of 125I-PYY(1-36) from hNPY2R membranes. How it is done:
The filtration RLB assay was carried out in 96-well plates in a final volume of 100 μl per well. Freeze-dried test peptides were dissolved in 100% dimethyl sulfoxide (DMSO) to stock solutions of 1 mM and serial dilutions were performed in assay buffer (50 mM HEPES, 5 mM MgCl₂, 1 mM CaCl₂), pH 7.4) containing 0.2% ovalbumin. […] Next, 80 μL membranes (HTS066M, ChemiSCREEN™ Human Neuropeptide Y2 Receptor Membrane Preparation, CHEMICON) were added to each well to give a final protein concentration of 0.5 μg/well. The plates were sealed and incubated at room temperature for 2 hours in a plate shaker set at 400 rpm. The incubation was stopped by vacuum filtration onto 0.5% polyethylene amine (PEI) presoaked GF/C filters using a 96-well FilterMate™ harvester (Perkin Elmer) followed by four washes with 300 μl/well ice-cold wash buffer (50 mM HEPES, 500 mM NaCl, pH7.4). Filter plates were then dried for 60 min at room temperature and the bottom of the plates was sealed with backing tape UniFilter-96. Finally, 50 μl/well scintillation counter cocktail (Microscint20, Packard) was added and the radioactivity was counted in the Packard TopCount NXT scintillation counter. IC₅₀ values (the half maximal inhibitory concentration of the agonist) were calculated by nonlinear regression analysis of sigmoidal dose-response curves.
In turn, B1 had a Ki of 1.57 nM. That is a single-digit nanomolar value.

Turning to B2, the Ki was 3.32 nM.

With B3, the Ki was 1.53 nM.

Regarding B4, the Ki amounted to 12.7 nM. This Ki is about 8.3-fold higher than that of the molecule before.

Consider B5, for which the affinity, expressed as Ki, was 4.65 nM.

The molecule B6 yielded a Ki of 106 nM.

The record behind these values is US20260015399A1 (Boehringer Ingelheim, published 2026).
